Biological target: Shank3 (UniProt Q4ACU6 1-1730)
Test: ITC

Shank3, sequence (Q4ACU6 whole entry): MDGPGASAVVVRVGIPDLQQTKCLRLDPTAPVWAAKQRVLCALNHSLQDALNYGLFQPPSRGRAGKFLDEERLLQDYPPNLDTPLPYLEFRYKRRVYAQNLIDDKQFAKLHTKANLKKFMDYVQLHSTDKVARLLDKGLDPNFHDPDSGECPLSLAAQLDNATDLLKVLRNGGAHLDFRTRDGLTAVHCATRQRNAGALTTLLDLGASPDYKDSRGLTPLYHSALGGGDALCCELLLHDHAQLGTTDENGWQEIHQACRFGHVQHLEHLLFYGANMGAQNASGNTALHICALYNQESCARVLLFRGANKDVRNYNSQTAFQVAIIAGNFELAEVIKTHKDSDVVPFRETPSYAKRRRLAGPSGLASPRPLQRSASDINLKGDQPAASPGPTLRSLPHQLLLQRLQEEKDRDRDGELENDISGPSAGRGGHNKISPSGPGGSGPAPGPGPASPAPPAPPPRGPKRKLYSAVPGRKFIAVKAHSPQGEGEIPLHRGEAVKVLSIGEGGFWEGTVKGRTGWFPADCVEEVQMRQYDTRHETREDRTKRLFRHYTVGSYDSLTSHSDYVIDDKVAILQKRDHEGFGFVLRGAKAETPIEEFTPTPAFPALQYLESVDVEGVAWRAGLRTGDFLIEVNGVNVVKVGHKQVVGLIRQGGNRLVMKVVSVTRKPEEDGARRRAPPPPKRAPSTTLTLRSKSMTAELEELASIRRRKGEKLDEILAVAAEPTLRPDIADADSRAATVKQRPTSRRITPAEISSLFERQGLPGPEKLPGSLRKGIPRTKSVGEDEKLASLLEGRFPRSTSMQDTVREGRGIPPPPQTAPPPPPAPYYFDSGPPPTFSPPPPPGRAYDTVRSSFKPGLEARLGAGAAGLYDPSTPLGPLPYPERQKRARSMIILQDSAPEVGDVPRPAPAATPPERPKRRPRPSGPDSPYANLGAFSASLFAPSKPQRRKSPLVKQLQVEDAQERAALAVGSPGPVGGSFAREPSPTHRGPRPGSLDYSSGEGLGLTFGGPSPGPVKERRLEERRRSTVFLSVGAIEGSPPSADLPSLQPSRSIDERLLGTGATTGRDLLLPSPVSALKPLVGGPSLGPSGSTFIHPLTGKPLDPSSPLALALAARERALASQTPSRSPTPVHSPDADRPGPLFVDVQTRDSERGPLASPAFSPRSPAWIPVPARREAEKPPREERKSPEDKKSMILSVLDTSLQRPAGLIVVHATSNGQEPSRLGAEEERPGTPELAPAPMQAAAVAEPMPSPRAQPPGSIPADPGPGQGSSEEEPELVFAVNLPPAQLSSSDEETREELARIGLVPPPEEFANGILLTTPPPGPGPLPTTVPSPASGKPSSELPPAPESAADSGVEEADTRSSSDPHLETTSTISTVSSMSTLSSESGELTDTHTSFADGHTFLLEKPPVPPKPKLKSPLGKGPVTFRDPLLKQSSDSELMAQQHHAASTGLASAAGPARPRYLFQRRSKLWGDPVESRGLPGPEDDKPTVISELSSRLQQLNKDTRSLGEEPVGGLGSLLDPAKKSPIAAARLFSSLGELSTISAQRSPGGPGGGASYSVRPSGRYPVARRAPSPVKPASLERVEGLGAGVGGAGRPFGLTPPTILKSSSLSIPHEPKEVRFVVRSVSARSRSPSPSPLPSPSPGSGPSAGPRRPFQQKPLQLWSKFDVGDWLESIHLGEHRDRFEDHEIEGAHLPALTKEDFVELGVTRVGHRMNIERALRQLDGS

Row | Kd [nM] | Binder
1 | 2400 | Homer1-R3E (natural protein) MGEQPIFSTRAHVFQIDPNTKKNWVPTSKHAVTVSYFYDSTENVYEIISLDGSKAIINSTITPNMTFTKTSQKFGQWADSEANTVYGLGFSSEHHLSKFAEKFQEFKEAARLAKEKSQEKMELTSTPSQESAGGDLQSPLTPESINGTDDERTPDVTQNSEPRAEPAQNALPFSHSAGDRTQGLSHASSAISKHWEAELATLKGNNAKLTAALLESTANVKQWKQQLAAYQEEAERLHKRVTELECVSSQANAVHSHKTELSQTVQELEETLKVKEEEIERLKQEIDNARELQEQRDSLTQKLQEVEIRNKDLEGQLSELEQRLEKSQSEQDAFRSNLKTLLEILDGKIFELTELRDNLAKLLECS
2 | 1000 | Homer1-WT (full-length Homer1) (natural protein) MGEQPIFSTRAHVFQIDPNTKKNWVPTSKHAVTVSYFYDSTRNVYRIISLDGSKAIINSTITPNMTFTKTSQKFGQWADSRANTVYGLGFSSEHHLSKFAEKFQEFKEAARLAKEKSQEKMELTSTPSQESAGGDLQSPLTPESINGTDDERTPDVTQNSEPRAEPAQNALPFSHSAGDRTQGLSHASSAISKHWEAELATLKGNNAKLTAALLESTANVKQWKQQLAAYQEEAERLHKRVTELECVSSQANAVHSHKTELSQTVQELEETLKVKEEEIERLKQEIDNARELQEQRDSLTQKLQEVEIRNKDLEGQLSELEQRLEKSQSEQDAFRSNLKTLLEILDGKIFELTELRDNLAKLLECS

Source: PMC10322149 (2023)
